The record followed here is patent publication US20070231897A1, “Induction of Insulin Secreting Cell” (KYOTO UNIVERSITY, priority 2004, published 2007).

This test deals with pancreatic acinar cells. Description: Effect of growth factors on insulin-positive cell induction in main culture of pancreatic acinar cells. The following applies: day 7 of culture; EGF 20 ng/ml, HGF, FGF7 and FGF10 10 ng/ml, GLP-1 30 ng/ml; rank among growth factors (FIG. 8B). It is filed as cell-based, mouse. The protocol: Eight-week old male mice (C57B1/6Cr Slc)(Japan SLC, Inc.: Hamamatsu, Japan) were anesthetized with 50 mg/kg of Nembtal (Dainippon Pharma Co., Ltd.: Osaka, Japan) and subjected to laparotomy. The choledoch duct was ligated near the position where it opens to the duodenum. Using a 27G winged needle (Terumo Corporation: Tokyo, Japan), 2-3 ml of Hank's buffer containing 0.05% collagenase P (Roche: Basel, Switzerland) and 10% fetal bovine serum was infused from the liver side. The pancreas, now swollen, was extracted and digested in 5 ml of Hank's buffer per pancreas for 18 minutes at 37° C. The digested pancreas then was made to pass through a 14G indwelling needle in both directions twice to disperse the pancreatic cells, which washed well with Hank's buffer containing 0.1% bovine serum albumin (Sigma: Saint Louis, Mo., USA). The pancreatic cells thus obtained were suspended in a mixed solution (solution A) consisting of 8.3% Ficoll 400 (Amersham Bioscience: Uppsala, Sweden) and 16.7% Conray 400 (Daiichi Pharmaceutical, Tokyo, Japan), and after a 87.5%-diluted solution of solution A and then a 50%-diluted solution of solution A were placed on it in the order, centrifuged (2,000 rpm, 10 min). […]

B1: fibroblast growth factor 10 (protein, UniProt O15520 38-208, looked up)
Fibroblast growth factor 10: QALGQDMVSPEATNSSSSSFSSPSSAGRHVRSYNHLQGDVRWRKLFSFTKYFLKIEKNGKVSGTKKENCPYSILEITSVEIGVVAVKAINSNYYLAMNKKGKLYGSKEFNNDCKLKERIEENGYNTYASFNWQHNGRQMYVALNGKGAPRRGQKTRRKNTSAHFLPMVVHS
notes: fibroblast growth factor 10 (R&D Systems), growth factor added to the culture medium
Regarding B1, the “proportion of insulin-positive cells” value was “this was followed by FGF10 and HGF”.
